Laboratory results reported in patent US20190218277A1 (Chugai, published 2019).
Substitutions are numbered along the chain they refer to. Where two headings read alike, the source gives them in different places.

Columns and labels:
human C1q (Calbiochem) [1] = target: T1, human C1q (Calbiochem) (human, UniProt P02745 23-245; P02746 28-253; P02747 29-245); assay: ELISA: antibody coated on the plate at the concentration shown, human C1q added, detected with HRP anti-human C1q, OD 450 nm
human FcγRIa = target: T2, human FcγRIa (human, UniProt P12314 16-292); assay: SPR (Biacore T200, pH 7.4, 25 °C): His-tagged FcγR captured by anti-His antibody; antibody injected at 100 nM alone (Ab alone) or as 1:1 complex with trimeric CD154 (CD154 IC); binding level / capture level [A]
T2 construct: also called human FcγR1a

human FcγRIIb = target: T3, human FcγRIIb (human, UniProt P31994 43-217); assay: SPR (Biacore T200, pH 7.4, 25 °C): His-tagged FcγR captured by anti-His antibody; antibody injected at 100 nM alone (Ab alone) or as 1:1 complex with trimeric CD154 (CD154 IC); binding level / capture level [D]
T3 construct: also called human FcγR2b
T3 sequence: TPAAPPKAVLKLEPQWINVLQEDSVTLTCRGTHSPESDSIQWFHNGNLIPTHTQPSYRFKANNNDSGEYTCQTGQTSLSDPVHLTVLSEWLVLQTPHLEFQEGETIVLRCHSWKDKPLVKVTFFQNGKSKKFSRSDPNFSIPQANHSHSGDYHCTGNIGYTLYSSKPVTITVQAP

human FcγRIIIa (158F) = target: T4, human FcγRIIIa (158F) (human, UniProt P08637 17-208); assay: SPR (Biacore T200, pH 7.4, 25 °C): His-tagged FcγR captured by anti-His antibody; antibody injected at 100 nM alone (Ab alone) or as 1:1 complex with trimeric CD154 (CD154 IC); binding level / capture level [E]
T4 construct: also called human FcγR3a allelic variant 158F

human FcγRIIIa (158V) = target: T5, human FcγRIIIa (158V) (human, UniProt P08637 17-208); assay: SPR (Biacore T200, pH 7.4, 25 °C): His-tagged FcγR captured by anti-His antibody; antibody injected at 100 nM alone (Ab alone) or as 1:1 complex with trimeric CD154 (CD154 IC); binding level / capture level [F]
T5 construct: also called human FcγR3a allelic variant 158V

human FcγRIIIb (NA1) = target: T6, human FcγRIIIb (NA1) (human, UniProt O75015 17-200); assay: SPR (Biacore T200, pH 7.4, 25 °C): His-tagged FcγR captured by anti-His antibody; antibody injected at 100 nM alone (Ab alone) or as 1:1 complex with trimeric CD154 (CD154 IC); binding level / capture level [G]
T6 construct: also called human FcγR3b allelic variant NA1
T6 chain: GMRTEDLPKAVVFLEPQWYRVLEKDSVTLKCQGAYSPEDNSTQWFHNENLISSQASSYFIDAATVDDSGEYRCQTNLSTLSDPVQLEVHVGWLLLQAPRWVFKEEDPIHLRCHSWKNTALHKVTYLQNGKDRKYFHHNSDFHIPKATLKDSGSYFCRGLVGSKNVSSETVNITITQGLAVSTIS

human FcγRIIIb (NA2) = target: T7, human FcγRIIIb (NA2) (human, UniProt O75015 17-200); assay: SPR (Biacore T200, pH 7.4, 25 °C): His-tagged FcγR captured by anti-His antibody; antibody injected at 100 nM alone (Ab alone) or as 1:1 complex with trimeric CD154 (CD154 IC); binding level / capture level [H]
T7 construct: also called human FcγR3b allelic variant NA2
T7 chain: T6 chain with R20S, N49S, D66N, V90I

mouse FcγRI = target: T8, mouse FcγRI (mouse, UniProt P26151 25-297); assay: SPR (Biacore T200, pH 7.4, 25 °C): His-tagged FcγR captured by anti-His antibody; antibody injected at 100 nM alone (Ab alone) or as 1:1 complex with trimeric CD154 (CD154 IC); binding level / capture level [A]
T8 construct: also called mFcγRI; mouse FcγR1
T8 sequence: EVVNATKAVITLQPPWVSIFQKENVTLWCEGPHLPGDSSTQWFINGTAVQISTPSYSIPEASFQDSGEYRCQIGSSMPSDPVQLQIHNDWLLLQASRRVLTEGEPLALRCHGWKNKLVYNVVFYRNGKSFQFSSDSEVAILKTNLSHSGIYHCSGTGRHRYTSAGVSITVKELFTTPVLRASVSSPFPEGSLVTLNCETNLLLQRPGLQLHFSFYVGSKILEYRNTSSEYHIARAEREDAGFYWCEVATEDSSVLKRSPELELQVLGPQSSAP

mouse FcγRIII = target: T9, mouse FcγRIII (mouse, UniProt P08508 31-215); assay: SPR (Biacore T200, pH 7.4, 25 °C): His-tagged FcγR captured by anti-His antibody; antibody injected at 100 nM alone (Ab alone) or as 1:1 complex with trimeric CD154 (CD154 IC); binding level / capture level [C]
T9 construct: also called mFcγRIII; mouse FcγR3
T9 chain: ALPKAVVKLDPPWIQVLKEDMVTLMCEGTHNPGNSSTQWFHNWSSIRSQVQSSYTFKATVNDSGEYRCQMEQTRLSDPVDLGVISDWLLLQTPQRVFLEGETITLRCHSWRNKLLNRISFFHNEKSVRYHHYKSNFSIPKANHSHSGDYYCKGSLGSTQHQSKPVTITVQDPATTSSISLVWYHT

mouse FcγRIV = target: T10, mouse FcγRIV (mouse, UniProt A0A0B4J1G0 21-203); assay: SPR (Biacore T200, pH 7.4, 25 °C): His-tagged FcγR captured by anti-His antibody; antibody injected at 100 nM alone (Ab alone) or as 1:1 complex with trimeric CD154 (CD154 IC); binding level / capture level [D]
T10 construct: also called mFcγRIV; mouse FcγR4
T10 sequence: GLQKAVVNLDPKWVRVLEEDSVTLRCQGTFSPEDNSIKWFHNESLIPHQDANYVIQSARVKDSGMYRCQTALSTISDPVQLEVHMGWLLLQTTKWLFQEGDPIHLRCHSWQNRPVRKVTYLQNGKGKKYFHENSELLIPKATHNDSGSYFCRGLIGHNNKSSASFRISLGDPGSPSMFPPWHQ

human C1q (Calbiochem) [2] = target: T1, human C1q (Calbiochem); assay: ELISA: antibody coated on the plate at the concentration shown, human C1q added, detected with HRP anti-human C1q, OD 450 nm; remark: listed apart in the source
mouse FcγRIIb = target: T11, mouse FcγRIIb (mouse, UniProt P08101 30-210); assay: SPR (Biacore T200, pH 7.4, 25 °C): His-tagged FcγR captured by anti-His antibody; antibody injected at 100 nM alone (Ab alone) or as 1:1 complex with trimeric CD154 (CD154 IC); binding level / capture level [B]
T11 construct: also called mFcγRIIb; mouse FcγR2b
T11 sequence: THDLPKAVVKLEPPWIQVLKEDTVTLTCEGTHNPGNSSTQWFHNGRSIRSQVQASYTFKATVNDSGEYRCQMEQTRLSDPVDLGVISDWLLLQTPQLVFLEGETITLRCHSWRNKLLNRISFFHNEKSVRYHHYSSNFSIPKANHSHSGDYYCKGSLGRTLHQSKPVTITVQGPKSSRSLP

[3] = target: T12, Recombinant soluble E protein (0.8E-His) from DENV-3 (DENV-3, UniProt P27915 281-673); assay: SPR, Biacore T200
T12 construct: also called DENV-3 E protein; DV3

[4] = target: T13, Recombinant soluble E protein (0.8E-His) from DENV-1 (DENV-1, UniProt P27909 281-675)
T13 construct: also called DENV-1 E protein; DV1

[5] = target: T14, Recombinant soluble E protein (0.8E-His) from DENV-2 (DENV-2, UniProt P14340 281-675)
T14 construct: also called DENV-2 E protein; DV2

[6] = target: T15, Recombinant soluble E protein (0.8E-His) from DENV-4 (DENV-4, UniProt P09866 280-674)
T15 construct: also called DENV-4 E protein; DV4

[7] = target: T12, Recombinant soluble E protein …
[8] = target: T12, Recombinant soluble E protein …; remark: listed apart in the source
[9] = target: T13, Recombinant soluble E protein …; remark: listed apart in the source

T2 sequence (P12314 16-292 limits assumed): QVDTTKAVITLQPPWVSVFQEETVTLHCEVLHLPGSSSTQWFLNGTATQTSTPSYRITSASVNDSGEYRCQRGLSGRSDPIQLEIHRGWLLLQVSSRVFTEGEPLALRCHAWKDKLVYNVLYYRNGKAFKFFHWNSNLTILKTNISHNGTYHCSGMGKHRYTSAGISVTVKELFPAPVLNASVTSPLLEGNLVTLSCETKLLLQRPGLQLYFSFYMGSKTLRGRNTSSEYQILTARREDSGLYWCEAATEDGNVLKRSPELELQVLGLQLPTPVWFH
T1 sequence (P02745 23-245 limits assumed, chain 1 of 3): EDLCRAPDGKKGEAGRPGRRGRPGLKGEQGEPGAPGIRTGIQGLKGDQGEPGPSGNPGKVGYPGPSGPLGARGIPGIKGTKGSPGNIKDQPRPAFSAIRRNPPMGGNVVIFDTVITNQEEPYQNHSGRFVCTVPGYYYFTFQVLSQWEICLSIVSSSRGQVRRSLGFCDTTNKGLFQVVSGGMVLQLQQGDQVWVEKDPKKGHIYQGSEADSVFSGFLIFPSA
T1 sequence (P02746 28-253 limits assumed, chain 2 of 3): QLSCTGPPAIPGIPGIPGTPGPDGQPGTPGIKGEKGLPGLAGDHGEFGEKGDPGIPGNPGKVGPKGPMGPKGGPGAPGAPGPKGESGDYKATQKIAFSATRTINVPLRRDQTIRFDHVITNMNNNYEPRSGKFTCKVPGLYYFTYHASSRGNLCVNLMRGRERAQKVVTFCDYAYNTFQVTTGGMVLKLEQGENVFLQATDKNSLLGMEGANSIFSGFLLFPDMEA
T1 sequence (P02747 29-245 limits assumed, chain 3 of 3): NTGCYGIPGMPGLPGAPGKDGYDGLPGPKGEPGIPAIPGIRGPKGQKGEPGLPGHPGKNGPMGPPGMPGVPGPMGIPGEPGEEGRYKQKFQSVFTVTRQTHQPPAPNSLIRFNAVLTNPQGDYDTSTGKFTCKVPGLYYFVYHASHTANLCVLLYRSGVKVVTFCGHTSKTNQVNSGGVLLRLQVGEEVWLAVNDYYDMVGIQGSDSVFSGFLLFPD

B1: Anti-CD154 antibody (SLAPH0336a/SLAPL0336a) with Fc variant LALA+EFT (SG1090) (antibody, human IgG1, kappa, L234A L235A)
heavy: EVQLVESGGGSVKPGGSLKLSCAASGFTFSDHYMYWVRQTPEKRLEWVAIISGGGSYTSYPDSMKGRFTISRDNAKNILHLQMSSLKSEDTAMYYCTRESNGKPGFAYWGQGTLVTVSAASTKGPSVFPLAPSSKSTSGGTAALGCLVKDYFPEPVTVSWNSGALTSGVHTFPAVLQSSGLYSLSSVVTVPSSSLGTQTYICNVNHKPSNTKVDKRVEPKSCDKTHTCPPCPAPEAAGGPSVFLFPPKPKDTLMISRTPEVTCVVVDVEFEDPEVKFNWYVDGVEVHNAKTKPREEQYNSTYRVVSVLTVLHQDWLNGKEYKCKVTNKALPAPIEKTISKAKGQPREPQVYTLPPSREEMTKNQVSLTCLVKGFYPSDIAVEWESNGQPENNYKTTPPVLDSDGSFFLYSKLTVDKSRWQQGNVFSCSVMHEALHNHYTQKSLSLSP
light: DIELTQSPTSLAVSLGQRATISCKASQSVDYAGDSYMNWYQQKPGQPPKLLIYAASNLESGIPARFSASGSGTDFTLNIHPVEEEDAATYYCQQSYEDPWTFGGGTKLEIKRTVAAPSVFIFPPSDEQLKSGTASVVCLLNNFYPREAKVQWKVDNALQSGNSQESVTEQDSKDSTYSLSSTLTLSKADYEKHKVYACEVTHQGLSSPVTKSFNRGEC
- EC50 (read off the curve) (human C1q (Calbiochem) [1]): ~2 µg/mL
- binding result (human FcγRIa): binds
- binding result (human FcγRIIb): binds
- binding result (human FcγRIIIa (158F)): no binding (tested: 100 nM)
- binding result (human FcγRIIIa (158V)): binds
- binding result (human FcγRIIIb (NA1)): no binding (tested: 100 nM)
- binding result (human FcγRIIIb (NA2)): no binding (tested: 100 nM)
- binding result (mouse FcγRI): no binding (tested: 100 nM)
- binding result (mouse FcγRIII): binds
- binding result (mouse FcγRIV): no binding (tested: 100 nM)

B2: Anti-CD154 antibody (SLAPH0336a/SLAPL0336a) with Fc variant LALA+EFT+AE (SG1089) (antibody, human IgG1, kappa)
heavy: B1 heavy with G238A, I334E
light: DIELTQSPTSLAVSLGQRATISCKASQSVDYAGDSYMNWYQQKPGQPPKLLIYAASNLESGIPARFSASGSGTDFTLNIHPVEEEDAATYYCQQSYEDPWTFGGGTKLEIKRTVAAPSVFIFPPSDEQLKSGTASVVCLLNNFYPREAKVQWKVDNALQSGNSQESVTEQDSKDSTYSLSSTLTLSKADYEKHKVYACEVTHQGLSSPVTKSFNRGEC
- EC50 (read off the curve) (human C1q (Calbiochem) [1]): ~3 µg/mL
- binding result (human FcγRIa): binds
- binding result (human FcγRIIb): binds
- binding result (human FcγRIIIa (158V)): binds
- binding result (human FcγRIIIb (NA1)): no binding (tested: 100 nM)
- binding result (mouse FcγRI): no binding (tested: 100 nM)
- binding result (mouse FcγRIII): binds
- binding result (mouse FcγRIV): binds

B3: Anti-CD154 antibody (SLAPH0336a/SLAPL0336a) with Fc variant LALA+KWES (SG1088) (antibody, human IgG1, kappa, L234A L235A)
heavy: B1 heavy with E269S, F270H, T326S, K328W, E335S
light: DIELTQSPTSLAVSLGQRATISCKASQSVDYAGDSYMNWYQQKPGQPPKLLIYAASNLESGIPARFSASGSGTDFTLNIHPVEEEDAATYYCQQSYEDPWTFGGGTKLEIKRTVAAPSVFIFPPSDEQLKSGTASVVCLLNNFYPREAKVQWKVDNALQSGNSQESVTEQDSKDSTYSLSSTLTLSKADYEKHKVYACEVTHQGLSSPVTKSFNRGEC
- EC50 (read off the curve) (human C1q (Calbiochem) [1]): ~2 µg/mL
- EC50 (read off the curve) (human C1q (Calbiochem) [2]): ~3 µg/mL
- binding result (human FcγRIa): binds

B4: EFT+AE (antibody, human IgG1, kappa)
heavy chain: B1 heavy with A236L, A237L, G238A, I334E
light chain: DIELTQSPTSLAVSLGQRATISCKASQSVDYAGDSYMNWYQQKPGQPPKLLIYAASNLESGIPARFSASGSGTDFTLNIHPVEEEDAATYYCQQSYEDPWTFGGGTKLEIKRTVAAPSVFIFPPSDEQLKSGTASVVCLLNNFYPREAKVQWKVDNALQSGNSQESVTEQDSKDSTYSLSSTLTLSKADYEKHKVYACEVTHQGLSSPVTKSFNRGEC
notes: also called Anti-CD154 antibody (SLAPH0336a/SLAPL0336a) with Fc variant EFT+AE (SG1086); SG1086
- binding result (human FcγRIa): binds
- binding result (human FcγRIIb): binds
- binding result (human FcγRIIIa (158F)): binds
- binding result (human FcγRIIIa (158V)): binds
- binding result (human FcγRIIIb (NA2)): binds
- binding result (mouse FcγRI): binds
- binding result (mouse FcγRIIb): binds
- binding result (mouse FcγRIII): binds
- binding result (mouse FcγRIV): binds

B5: DG_3CH955-SG182/3CL563-SK1 (antibody, human IgG1, kappa, V domains shown)
VH: QVQLVQSGPDVEKPGASVKVSCKASGYTFTSNYIHWVRQAPGQGLEWMGVINPRGGSRRSAQKFQGRITMTRDTSTSTVYMELSSLRSEDTAVYYCARGGRALFYDSYTTPRDLGSWWFDPWGQGSLVTVSS
VL: DIQLTQSPSSLSASVGDRVTFTCQASQDIRQYLNWYQQKPGKAPKLLIYDASNLKFGVPSRFSGSGSGTDFTFTISSLQPEDVATYYCQQFSALPITFGQGTRLQIKR
- binding result [3]: binds
- Kd [4]: 1.91 nM
- Kd [5]: 1.04 nM
- Kd [6]: 12.2 nM

B6: DG_3CH1047-SG182/3CL658-SK1 (antibody, human IgG1, kappa, V domains shown)
VH: B5 VH with N32Y, I34M, R101E, R112F, L114G
VL: B5 VL with D28E, Q31K, N53E, F56T, S92E, A93D
notes: also called 3Cam
- Kd [7]: 0.00382 nM
- Kd [8]: 0.00501 nM
- Kd [4]: 3.51 nM
- Kd [5]: 0.765 nM
- Kd [6]: 9.11 nM
- Kd [9]: 2.98 nM
